Experimental data published in US20030166870A1.
Read-outs that look alike come from different tables or passages of the source.

Experiments:
[1] = target: FLAG-tagged human CCR5 expressed on transfected L1.2 murine pre-B lymphoma cells (human) (UniProt P51681)
[2] = target: FLAG-tagged human CCR5 expressed on transfected L1.2 murine pre-B lymphoma cells (human) (UniProt P51681); experiment: cell-based or functional assay
[3] = target: human CCR5 (no tag stated) (human) (UniProt P51681); experiment: cell-based or functional assay
[4] = target: human CCR5 (no tag stated) (human) (UniProt P51681); experiment: 10 µg/ml mAb; 125I-MIP-1α binding to activated IL-2 maintained T cells (CD3 blasts); competitor MIP-1α
[5] = target: human CCR5 (no tag stated) (human) (UniProt P51681); experiment: 10 µg/ml mAb; 125I-RANTES binding to activated IL-2 maintained T cells (CD3 blasts); competitor RANTES
[6] = target: FLAG-tagged human CCR5 expressed on transfected L1.2 murine pre-B lymphoma cells (human) (UniProt P51681); experiment: inhibition of 0.1 nM 125I-MIP-1α binding to CCR5 L1.2 transfectants by decreasing amounts of mAb; competitor MIP-1α
[7] = target: FLAG-tagged human CCR5 expressed on transfected L1.2 murine pre-B lymphoma cells (human) (UniProt P51681); experiment: inhibition of 0.1 nM 125I-MIP-1β binding to CCR5 L1.2 transfectants by decreasing amounts of mAb; competitor MIP-1β
[8] = target: FLAG-tagged human CCR5 expressed on transfected L1.2 murine pre-B lymphoma cells (human) (UniProt P51681); experiment: inhibition of 0.1 nM 125I-RANTES binding to CCR5 L1.2 transfectants by decreasing amounts of mAb; competitor RANTES

murine monoclonal antibody 2D7
IC50 [1]: 0.01 µg/mL | concentration giving complete inhibition of 125I-gp120 binding [1]: 50 ng/mL | mAb concentration sufficient for complete inhibition of migration of CCR5 L1.2 cells to all of the ligands [2]: 20 µg/mL | inhibition of RANTES and MIP-1α chemotactic responses by T cell lines [3]: 60 to 80% | inhibition of chemotactic response of anti-CD3/IL-2 stimulated T cells to MIP-1α [3]: 60 to 80% | percent inhibition of 125I-MIP-1α binding [4]: 85% | percent inhibition of 125I-RANTES binding [5]: 95% | IC50 [6]: 0.023 µg/mL | IC50 [7]: 0.041 µg/mL | IC50 [8]: 0.058 µg/mL
